# T1: DFA0
# T1 construct: Bivalent connector
# T1 chain: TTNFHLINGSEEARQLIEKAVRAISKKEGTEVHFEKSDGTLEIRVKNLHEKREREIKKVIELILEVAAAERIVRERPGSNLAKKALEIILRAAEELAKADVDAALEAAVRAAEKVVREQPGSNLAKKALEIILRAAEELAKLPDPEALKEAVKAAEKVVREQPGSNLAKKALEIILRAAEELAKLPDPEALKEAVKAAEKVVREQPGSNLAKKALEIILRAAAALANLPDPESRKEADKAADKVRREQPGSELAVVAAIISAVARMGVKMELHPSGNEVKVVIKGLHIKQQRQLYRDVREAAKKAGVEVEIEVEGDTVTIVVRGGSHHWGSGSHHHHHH
# T2: 101B62
# T2 construct: also called LHD101B62
# T2 chain: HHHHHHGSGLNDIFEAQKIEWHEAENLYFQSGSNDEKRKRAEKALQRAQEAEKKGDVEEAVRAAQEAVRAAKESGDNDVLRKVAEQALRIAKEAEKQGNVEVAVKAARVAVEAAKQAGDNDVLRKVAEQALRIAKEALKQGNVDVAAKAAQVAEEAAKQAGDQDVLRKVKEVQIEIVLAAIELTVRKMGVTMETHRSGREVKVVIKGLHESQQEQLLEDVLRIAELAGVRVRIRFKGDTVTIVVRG
# T3: DF275A-1
# T3 construct: Bivalent connector
# T3 chain: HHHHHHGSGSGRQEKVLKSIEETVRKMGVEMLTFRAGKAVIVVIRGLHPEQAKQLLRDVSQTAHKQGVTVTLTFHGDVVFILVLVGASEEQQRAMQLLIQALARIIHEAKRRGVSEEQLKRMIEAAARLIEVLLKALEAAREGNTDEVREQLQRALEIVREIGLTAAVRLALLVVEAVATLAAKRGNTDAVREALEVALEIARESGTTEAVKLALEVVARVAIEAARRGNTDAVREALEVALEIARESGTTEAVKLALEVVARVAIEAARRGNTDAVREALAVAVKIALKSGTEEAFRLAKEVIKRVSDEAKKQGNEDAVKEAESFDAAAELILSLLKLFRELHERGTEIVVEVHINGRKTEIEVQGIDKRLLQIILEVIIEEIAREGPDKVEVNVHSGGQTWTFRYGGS
# T4: LHD274 B62
# T4 construct: also called LHD274 B DHR62 C
# T4 single chain, LHD274 chain B fused to DHR62: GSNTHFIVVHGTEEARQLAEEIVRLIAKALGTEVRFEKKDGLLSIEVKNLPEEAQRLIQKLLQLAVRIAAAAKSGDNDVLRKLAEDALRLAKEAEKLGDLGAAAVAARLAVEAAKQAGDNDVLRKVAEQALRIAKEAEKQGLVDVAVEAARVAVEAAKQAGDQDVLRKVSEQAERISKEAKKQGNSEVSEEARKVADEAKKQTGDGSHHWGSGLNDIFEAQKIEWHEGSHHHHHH
# T5: 274B53
# T5 construct: also called LHD274B DHR53 stop
# T5 chain: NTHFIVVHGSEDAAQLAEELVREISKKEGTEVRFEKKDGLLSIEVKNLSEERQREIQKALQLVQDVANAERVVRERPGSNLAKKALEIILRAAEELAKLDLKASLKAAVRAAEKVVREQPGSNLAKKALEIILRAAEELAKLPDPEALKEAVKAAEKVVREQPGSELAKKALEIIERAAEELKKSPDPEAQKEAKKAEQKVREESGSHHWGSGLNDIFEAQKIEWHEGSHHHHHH
# T6: DFX
# T6 construct: Bivalent connector
# T6 chain: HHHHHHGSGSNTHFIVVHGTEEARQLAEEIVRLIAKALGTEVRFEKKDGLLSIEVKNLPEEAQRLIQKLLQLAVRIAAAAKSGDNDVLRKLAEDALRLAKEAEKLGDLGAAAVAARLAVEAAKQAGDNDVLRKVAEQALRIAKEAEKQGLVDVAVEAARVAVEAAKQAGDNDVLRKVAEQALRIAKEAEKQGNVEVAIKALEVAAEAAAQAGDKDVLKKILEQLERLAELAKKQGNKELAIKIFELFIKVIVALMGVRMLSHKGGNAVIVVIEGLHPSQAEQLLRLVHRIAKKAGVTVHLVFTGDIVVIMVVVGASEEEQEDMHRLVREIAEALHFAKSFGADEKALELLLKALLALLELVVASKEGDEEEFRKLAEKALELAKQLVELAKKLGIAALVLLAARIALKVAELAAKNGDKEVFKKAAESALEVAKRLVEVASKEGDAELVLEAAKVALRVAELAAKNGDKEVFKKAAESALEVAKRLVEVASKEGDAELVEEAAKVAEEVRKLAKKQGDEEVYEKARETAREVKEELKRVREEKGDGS
# T7: TF10
# T7 construct: Trivalent connector
# T7 chain: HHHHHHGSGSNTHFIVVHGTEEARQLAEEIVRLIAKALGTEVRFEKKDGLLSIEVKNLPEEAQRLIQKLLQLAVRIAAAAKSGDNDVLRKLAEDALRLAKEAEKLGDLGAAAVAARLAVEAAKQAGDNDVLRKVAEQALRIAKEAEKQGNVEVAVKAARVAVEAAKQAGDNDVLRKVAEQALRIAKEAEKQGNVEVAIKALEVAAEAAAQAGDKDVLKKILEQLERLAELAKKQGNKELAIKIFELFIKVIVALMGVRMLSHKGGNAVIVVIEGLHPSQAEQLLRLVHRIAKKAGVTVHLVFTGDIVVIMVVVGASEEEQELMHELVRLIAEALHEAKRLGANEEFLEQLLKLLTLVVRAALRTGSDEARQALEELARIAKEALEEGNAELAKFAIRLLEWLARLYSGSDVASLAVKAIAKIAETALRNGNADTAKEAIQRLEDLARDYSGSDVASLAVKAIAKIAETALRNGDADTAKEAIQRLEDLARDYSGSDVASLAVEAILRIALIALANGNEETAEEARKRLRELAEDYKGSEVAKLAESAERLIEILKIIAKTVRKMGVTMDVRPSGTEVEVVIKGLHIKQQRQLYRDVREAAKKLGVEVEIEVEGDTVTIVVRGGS
# Experiments:
# DFA0 = target: T1, DFA0; assay: SEC of mixed components; trimer listed in Table 6
# Description: (§1) Complexes and individual components were diluted in 20 mM Tris pH 8.0, 100 mM NaCl. After o/n equilibration of the mixtures at room temperature or 4 degrees C., 500 ul of sample was injected onto a Superdex™ 200 10/300 increase GL (dimers, linear assemblies) or Superose™ 6 increase 10/300 GL (symmetric assemblies) (all columns from GE healthcare) using the absorbance at 230 nm or 473 nm (for GFP tagged components) as read-out. Dimers were mixed at monomer concentrations of 5 μM or higher. Trimer and ABCD tetramer mixtures contained 5 μM of the bivalent connector, and 7.5 μM of each terminal cap (lower absolute concentrations with the same ratios were used for some trimers). ABCA tetramer mixtures contained 5 μM per bivalent connector and 15 μM terminal cap. The hexamer mixture contained 3 μM of components C and D, 3.6 μM of B and E, and 4.4 μM of A and F. The branched assembly shown in FIG. 4A contained 2.8 μM of the trivalent connector and 4 μM of each cap. For the exchange experiment shown in FIG. 5A, the ABC trimer was preincubated at concentrations of 6 μM B and 9 μM each of A and C. C′ was then added to reach a final concentration of 2 μM B, 3 μM each of A and C, and 6 μM C′.
# 101B62 = target: T2, 101B62; assay: SEC of mixed components; linear tetramer listed in Table 6, neighbours in the chain
# Description: as §1
# DF275A-1 = target: T3, DF275A-1; assay: SEC of mixed components; trimer listed in Table 6
# Description: as §1
# LHD274 B62 = target: T4, LHD274 B62; assay: SEC binding assay (Superdex 200, normalised A230) of A, B and the mixture AB
# Description: as §1
# 274B53 = target: T5, 274B53; assay: as above
# Description: as §1
# [1] = target: the molecule itself; assay: SEC titration of the protomer alone at several injection concentrations (Superdex 200, normalised A230); self-association
# DFX = target: T6, DFX; assay: negative-stain EM of the heterotrimer; components named in the legend
# Description: (§2) SEC peak fractions were concentrated prior to negative stain EM screening. Samples were then immediately diluted 5 to 150 times in TBS buffer (25 mM Tris pH 8.0, 25 mM NaCl) depending on sample concentration. A final volume of 5 μL was applied to negatively glow discharged, carbon-coated 400-mesh copper grids (01844-F, TedPella, Inc.), then washed with Milli-Q™ Water and stained using 0.75% uranyl formate as previously described (53). Air-dried grids were imaged on a FEI Talos L120C TEM (FEI Thermo Scientific, Hillsboro, OR) equipped with a 4K×4K Gatan OneView™ camera at a magnification of 57,000× and pixel size of 2.51. Micrographs were imported into CisTEM software or cryoSPARC™ software and a circular blob picker was used to select particles which were then subjected to 2D classification. Ab initio reconstruction and homogeneous refinement in Cn symmetry were used to generate 3D electron density maps (54, 55).
# TF10 = target: T7, TF10; assay: SEC (A230) of A---, -BCD and ABCD and negative-stain EM; components named in the legend of FIG. 17A, which paragraph 104 ties to FIG. 4A
# Description: as §1
# as §2, with “Ab initio reconstruction and homogeneous refinement in Cn symmetry were used to generate 3D electron density maps (54, 55).” left out
binder,measurement,setting,value
101B82 (designed binder) HHHHHHGSGLNDIFEAQKIEWHEAENLYFQSGSDEEVQEAVERAEELREEAEELIKKARKTGDAELLRKALEALEEAVRAVEEAIKRNPDNDEAVETAVRLARELKKVAEELQERAKKTGDAELLKLALRALEVAVRAVELAIKSNPDNDEAVETAVRLARELAKVAEELIERAKKTGDKELLKLAKRALEVAMRAVSLALKSNPDNEEARRVAAELVLLVIRAAVIEMGVTMEEHRSGNRVKVVIKGLHESQQEQLLEDVLRAAEIAGVRVRIRFKGDTVTIVVEG,binding result,DFA0,binds
"DFB0 (designed binder, Bivalent connector) NTHFIVVHGSEDAAQLAEELVREISKKEGTEVRFEKKDGLLSIEVKNLSEERQREIQKALQLVQDVANAERVVRERPGSNLAKKALEIILRAAEELAKLDLKASLKAAVRAAEKVVREQPGSNLAKKALEIILRAAEELAKLPDPEALKEAVKAAEKVVREQPGSNLAKKALEIILRAAEELAKLPDPEALKEAVKAAEKVVREQPGSNLAKKALEIILRAAAALANLPDPESRKEADKAADKVRREQPGSELAVVAAIISAVARMGVKMELHPSGNEVKVVIKGLHIKQQRQLYRDVREAAKKAGVEVEIEVEGDTVTIVVRGGSHHWGSGSHHHHHH",binding result,101B62,binds
206B62-2 (designed binder) HHHHHHGSGLNDIFEAQKIEWHEAENLYFQSGSNDEKRKRAEKALQRAQEAEKKGDVEEAVRAAQEAVRAAKESGDNDVLRKVAEQALRIAKEAEKQGNVEVAVKAARVAVEAAKQAGDNDVLRKVAEQALRIAKEAEKQGNVPVAVKALLVALNAAVAAGDQDVLRKISEQAERARKLAEKQGDKLLAFVLALISLVAQMGVPMEIHPSGNEVKVVIKGLHKSQQEQLLKLVLKLANKLGVNVHISFRGDTVTIRVRGGS,binding result,DF275A-1,binds
"LHD274 A64 (designed binder) single chain, LHD274 chain A fused to DHR64: GSTTNFHLINGSEEARQLIQKAVEAISKKEGTEVHFEKSDGTLEIRVKNLHPRQEDLIKKFIEALLLALVAKGELEQAEKEGDAEVALRAVEKVVRVAELLLRLAKEAGSEEALKAALEIAEQAARLAKRVLELAEKQGDAEVALRAVELVVRVAELLLRIAKESGSEEALERALRVAEEAARLAKRVLELAEKQGDAEVARRAVELVKRVAELLERIARESGSEEAKERAERVREEARELQERVKELREREGDGSHHWGSGLNDIFEAQKIEWHEGSHHHHHH",binding result,LHD274 B62,binds
same,binding result,274B53,binds
"DF206 (designed binder, Bivalent connector) NTHFIVVHGTEEARQLAEEIVRLIAEALGTEVRFEKKDGLLSIEVKNLPEEAQRLIQKLLQLAVRIAAAAESGDNDQLRELAEDALRLAEEAEKLGDLGAAAVAARLAVEAAKQAGDNDVLREVAEQALEIAKEAEKQGLVDVAVEAARVAVEAAKQAGDNDVLRKVAEQALRIAKEAEKQGNVEVAVKAARVAVEAAKQAGDNDVLRKVAEQALRIAKEAEKQGNVEVAALALVVAVNAAQAAGDQDLLRKIAEQAERLAKLAEKQGRRDVALLASIIALVAKMGVPMEVHPSGNEVKVVIKGLHKSQQEQLLKEVLKAANKLGVNVHISFRGDTVTIRVRGGGSHHWGSGSHHHHHH",binding result,DF275A-1,binds
"317B (designed binder, also called LHD317 B; LHD317B) GGSDVEWRFTNVSEEEQEKLARFVLQVAQLAGTQVIFTTRPGELRIRVHNLDELLALAIELYAQGLRLGDKHVQHLAKKAIEAILRGDRKLARFLLEAARAMSRATERPGSNLAKKALEEILRLAEELAKDPDPESLKAAVHCAEFVVRYQPGSNLAKKALEIILRAAEELAKLPDPEALKEAVKAAEKVVREQPGSELAKKALEIIERAAEELKKSPDPEAQKEAKKAEQKVREERPGSGGSGSHHWGSGSHHHHHH",binding result,[1],binds
same,binding result,DFX,binds
same,binding result,TF10,binds

# — patent publication US20240368233A1 (University of Washington, published 2024)
